# Experimental data from patent US20210388087A1 (Chugai, published 2021).
# Substitutions are numbered along the chain they refer to.
# B1: H183/L072 VL Q24S (antibody, name in Kabat numbering, V domains shown)
# VH: QVQLVESGGGLVQPGRSLRLSCAASGFTFSNAWMHWVRQAPGKGLEWVAQIKDKGNAYAAYYAPSVKGRFTISRDDSKNSIYLQMNSLKTEDTAVYYCHYVHYASASTVLPAFGVDAWGQGTTVTVSS
# VL: DIVMTQSPLSLPVTPGEPASISCSASQELVHMNRNTYLHWYQQKPGQAPRLLIYKVSNRFPGVPDRFSGSGSGTDFTLKISRVEAEDVGVYYCAQGTSVPFTFGQGTKLEIK
# notes: Dual-Ig
# B2: H183/L072 VL Q24Y (antibody, name in Kabat numbering, V domains shown)
# VH: B1 VH
# VL: B1 VL with S24Y
# notes: Dual-Ig
# B3: H183/L072 VL Q27H (antibody, name in Kabat numbering, V domains shown)
# VH: B1 VH
# VL: B1 VL with S24Q, Q27H
# notes: Dual-Ig
# B4: H183/L072 VL Q27K (antibody, name in Kabat numbering, V domains shown)
# VH: B1 VH
# VL: B1 VL with S24Q, Q27K
# notes: Dual-Ig
# B5: H183/L072 VL Q27L (antibody, name in Kabat numbering, V domains shown)
# VH: B1 VH
# VL: B1 VL with S24Q, Q27L
# notes: Dual-Ig
# B6: H183/L072 VL Q27P (antibody, name in Kabat numbering, V domains shown)
# VH: B1 VH
# VL: B1 VL with S24Q, Q27P
# notes: Dual-Ig
# B7: H183/L072 VL Q24T (antibody, name in Kabat numbering, V domains shown)
# VH: B1 VH
# VL: B1 VL with S24T
# notes: Dual-Ig
# B8: H183/L072 VL Q27I (antibody, name in Kabat numbering, V domains shown)
# VH: B1 VH
# VL: B1 VL with S24Q, Q27I
# notes: Dual-Ig
# B9: H183/L072 VL Q27G (antibody, name in Kabat numbering, V domains shown)
# VH: B1 VH
# VL: B1 VL with S24Q, Q27G
# notes: Dual-Ig
# B10: H183/L072 VL Q27F (antibody, name in Kabat numbering, V domains shown)
# VH: B1 VH
# VL: B1 VL with S24Q, Q27F
# notes: Dual-Ig
# B11: H183/L072 VL Q24V (antibody, name in Kabat numbering, V domains shown)
# VH: B1 VH
# VL: B1 VL with S24V
# notes: Dual-Ig
# B12: H183/L072 VL Q27M (antibody, name in Kabat numbering, V domains shown)
# VH: B1 VH
# VL: B1 VL with S24Q, Q27M
# notes: Dual-Ig
# B13: H183/L072 VL Q27A (antibody, name in Kabat numbering, V domains shown)
# VH: B1 VH
# VL: B1 VL with S24Q, Q27A
# notes: Dual-Ig
# B14: H183/L072 VL Q27N (antibody, name in Kabat numbering, V domains shown)
# VH: B1 VH
# VL: B1 VL with S24Q, Q27N
# notes: Dual-Ig
# B15: H183/L072 VL Q24W (antibody, name in Kabat numbering, V domains shown)
# VH: B1 VH
# VL: B1 VL with S24W
# notes: Dual-Ig
# B16: H183/L072 VL Q27E (antibody, name in Kabat numbering, V domains shown)
# VH: B1 VH
# VL: B1 VL with S24Q, Q27E
# notes: Dual-Ig
# B17: H183/L072 VL Q27D (antibody, name in Kabat numbering, V domains shown)
# VH: B1 VH
# VL: B1 VL with S24Q, Q27D
# notes: Dual-Ig
# Molecular target: T1, Human CD137 ECD (human)
# T1 construct: entry includes C-terminal His-tag and biotin acceptor peptide; also called human CD137 extracellular domain; 4-1BB
# T1 sequence (chain, as listed by the source limits assumed): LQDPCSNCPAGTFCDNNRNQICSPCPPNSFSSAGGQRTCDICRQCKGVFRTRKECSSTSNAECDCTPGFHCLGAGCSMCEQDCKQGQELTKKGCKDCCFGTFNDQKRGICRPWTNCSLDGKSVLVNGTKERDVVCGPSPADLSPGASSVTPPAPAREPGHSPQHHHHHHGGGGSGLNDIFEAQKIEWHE
# Experiment: Biacore SPR, vs parent H183/L072
row,Binder,fold change of affinity [fold]
1,B1,1
2,B2,0.9
3,B3,0.9
4,B4,0.9
5,B5,0.8
6,B6,0.1
7,B7,1
8,B8,0.7
9,B9,0.9
10,B10,0.6
11,B11,0.9
12,B12,0.9
13,B13,1
14,B14,0.8
15,B15,1
16,B16,1
17,B17,0.9
